Measured values as given in patent publication US20190360057.

Molecular target: ErbB2 (UniProt P04626)

## Src
  Src activity (Src kinase assay, Src-Y416 phosphorylation) after trastuzumab treatment: trastuzumab inhibited Src activity in ErbB2 overexpressing cells
